Assay results reported in the supplement of paper PMC9112550, “Optimization of the antimicrobial peptide Bac7 by deep mutational scanning” (BMC Biology, 2022).

Each sequence was assayed on Escherichia coli TOP10 (assay: shrunken log2 fold change of peptide-encoding DNA abundance (4.5 h post-induction vs induction); higher = less antimicrobial activity (less host growth inhibition)). Conditions: time post-induction: 4.5 h; library: site-saturation at positions 5, 18, 19, 20.
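Note: peptides expressed intracellularly from a pBAD plasmid library in pooled LB shake-flask culture, induced with 0.3% L-arabinose, DNA abundance read by NGS, three biological replicates, DESeq2 with apeglm shrinkage.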

| Sequence | shrunken log2 fold change |
| --- | --- |
| RRIRSRPPRLPRPRPRPRGFPRP | 0.82 |
| RRIRDRPPRLPRPRPRPGCTPRP | 0.727 |
| RRIRDRPPRLPRPRPRPSELPRP | -0.184 |
| RRIRFRPPRLPRPRPRPGVSPRP | 0.323 |
| RRIRTRPPRLPRPRPRPLHKPRP | 0.0334 |
| RRIRERPPRLPRPRPRPQTWPRP | 0.138 |
| RRIRKRPPRLPRPRPRPQLEPRP | 0.327 |
| RRIRLRPPRLPRPRPRPNTWPRP | -0.245 |
| RRIRDRPPRLPRPRPRPEYQPRP | 0.637 |
| RRIRYRPPRLPRPRPRPWSCPRP | -0.171 |
| RRIRRRPPRLPRPRPRPFPEPRP | 0.212 |
| RRIRVRPPRLPRPRPRPVMRPRP | 0.269 |
| RRIRIRPPRLPRPRPRPLCWPRP | -0.0614 |
| RRIRQRPPRLPRPRPRPDGCPRP | -0.103 |
| RRIRIRPPRLPRPRPRPSGHPRP | -0.397 |
| RRIRMRPPRLPRPRPRPDINPRP | 3.07 |
| RRIRMRPPRLPRPRPRPWDPPRP | 0.287 |
| RRIRFRPPRLPRPRPRPLPIPRP | 0.165 |
| RRIRSRPPRLPRPRPRPHQMPRP | -0.207 |
| RRIRPRPPRLPRPRPRPADHPRP | -0.015 |
| RRIRWRPPRLPRPRPRPTAPPRP | 0.481 |
| RRIRARPPRLPRPRPRPLIMPRP | -0.144 |
| RRIRKRPPRLPRPRPRPVSEPRP | 0.189 |
| RRIRFRPPRLPRPRPRPCDKPRP | -0.0972 |
| RRIRPRPPRLPRPRPRPSCSPRP | -0.538 |

| Sequence | shrunken log2 fold change |
| --- | --- |
| RRIRVRPPRLPRPRPRPWLHPRP | 0.215 |
| RRIRYRPPRLPRPRPRPLYTPRP | -0.795 |
| RRIRVRPPRLPRPRPRPAPKPRP | 0.438 |
| RRIRPRPPRLPRPRPRPRVHPRP | -0.0821 |
| RRIRARPPRLPRPRPRPNGNPRP | -0.191 |
| RRIRNRPPRLPRPRPRPNVMPRP | -0.16 |
| RRIRKRPPRLPRPRPRPVQDPRP | 0.295 |
| RRIRERPPRLPRPRPRPIDWPRP | -0.0206 |
| RRIRQRPPRLPRPRPRPGPNPRP | -0.0457 |
| RRIRCRPPRLPRPRPRPCNEPRP | -0.514 |
| RRIRRRPPRLPRPRPRPHCSPRP | -0.0453 |
| RRIRLRPPRLPRPRPRPNRHPRP | -0.312 |
| RRIRHRPPRLPRPRPRPLHWPRP | 0.0266 |
| RRIRFRPPRLPRPRPRPFHWPRP | -0.336 |
| RRIRSRPPRLPRPRPRPASIPRP | 7.54e-05 |
| RRIRKRPPRLPRPRPRPLWKPRP | -0.206 |
| RRIRIRPPRLPRPRPRPAGTPRP | -0.108 |
| RRIRLRPPRLPRPRPRPHSTPRP | -0.149 |
| RRIRHRPPRLPRPRPRPMTLPRP | -0.0135 |
| RRIRQRPPRLPRPRPRPIFYPRP | -0.418 |
| RRIRERPPRLPRPRPRPNCVPRP | -0.0533 |
| RRIRHRPPRLPRPRPRPTMYPRP | 0.000437 |
| RRIRMRPPRLPRPRPRPKKEPRP | -0.0374 |
| RRIRVRPPRLPRPRPRPRPHPRP | 0.351 |
| RRIRCRPPRLPRPRPRPSHRPRP | -0.508 |

| Sequence | shrunken log2 fold change |
| --- | --- |
| RRIRSRPPRLPRPRPRPPFGPRP | 0.398 |
| RRIRKRPPRLPRPRPRPNLWPRP | 0.492 |
| RRIRARPPRLPRPRPRPMGSPRP | 0.0355 |
| RRIRGRPPRLPRPRPRPHPSPRP | 0.445 |
| RRIRVRPPRLPRPRPRPLMEPRP | -0.21 |
| RRIRFRPPRLPRPRPRPNCEPRP | 0.194 |
| RRIRGRPPRLPRPRPRPQGAPRP | 0.807 |
| RRIRNRPPRLPRPRPRPHLAPRP | 0.131 |
| RRIRLRPPRLPRPRPRPMELPRP | -0.00973 |
| RRIRGRPPRLPRPRPRPRCFPRP | 0.698 |
| RRIRQRPPRLPRPRPRPAIWPRP | -0.143 |
| RRIRTRPPRLPRPRPRPRIGPRP | 0.116 |
| RRIRMRPPRLPRPRPRPETLPRP | -0.0225 |
| RRIRDRPPRLPRPRPRPHPSPRP | 0.0703 |
| RRIRERPPRLPRPRPRPRCPPRP | 0.00202 |
| RRIRKRPPRLPRPRPRPENDPRP | -0.0386 |
| RRIRSRPPRLPRPRPRPIRRPRP | 0.011 |
| RRIRRRPPRLPRPRPRPSRHPRP | 0.319 |
| RRIRRRPPRLPRPRPRPPSFPRP | 0.251 |
| RRIRHRPPRLPRPRPRPWCNPRP | -0.417 |
| RRIRPRPPRLPRPRPRPKDSPRP | -0.157 |
| RRIRARPPRLPRPRPRPRGCPRP | 0.822 |
| RRIRTRPPRLPRPRPRPNDMPRP | -0.209 |
| RRIRQRPPRLPRPRPRPKTEPRP | 0.104 |
| RRIRIRPPRLPRPRPRPRLYPRP | 0.0739 |
